Four molecules from US8409836B2, “Treatment of cellulosic material and enzymes useful therein” (Roal Oy, priority 2005, dated 2013) can be followed below.

Data set [1] can be described thus: Specific activity on MUG2. Particulars: purified xylanase, 50° C. pH 5.0 10 min. The data set is classed as biochemical. Here is the method: (§1) The specific activity of the preparations was determined using 4-methylumbelliferyl-β-D-lactoside (MUL), 4-methylumbelliferyl-β-D-cellobioside (MUG2) or 4-methylumbelliferyl-β-D-cellotrioside (MUG3) as substrate (van Tilbeurgh et al., 1988) in 0.05 M sodium citrate buffer pH 5 at 50° C. for 10 min. Endoglucanase and xylanase activities were determined by standard procedures (according to IUPAC, 1987) using carboxymethyl cellulose (CMC) and birch glucuronoxylan (Bailey et al., 1992) as substrates. Specific activity against Avicel was calculated on the basis of reducing sugars formed in a 24 h reaction at 50° C., pH 5.0, with 1% substrate and 0.25 μM enzyme dosage. The protein content of the purified enzyme preparations was measured according to Lowry et al., 1951. To characterize the end products of hydrolysis, soluble sugars liberated in 24 h hydrolysis experiment, as described above, were analysed by HPLC (Dionex). Purified cellobiohydrolase I (CBHI/Cel7A) of Trichoderma reesei was used as a reference.

A short description of data set [2]: Specific activity on MUG3. The data set is classed as biochemical. Particulars: purified xylanase, 50° C. pH 5.0 10 min. The method, then:
as §1

Data set [3] in a line: Xylanase activity on birch xylan. The data set is classed as biochemical. The method, then:
as §1
Acremonium thermophilum ALKO4245 was grown as described in Example 1. The culture supernatant was incubated at 70° C. for 24 hours after which, it was concentrated by ultrafiltration. The pure xylanase was obtained by sequential purification with hydrophobic interaction and cation exchange chromatography followed by gel filtration. The xylanase activity was determined using birch xylan as substrate (procedure of IUPAC 1987). Protein was assayed by BioRad Protein Assay Kit (Bio-Rad Laboratories) using bovine serum albumin as standard.
Thermoascus aurantiacus ALKO4242 was grown as described in Example 1. The pure xylanase was obtained by sequential purification with hydrophobic interaction, anion, and cation exchange chromatography followed by gel filtration. The xylanase activity was determined using birch xylan as substrate (procedure of IUPAC 1987). Protein was assayed by BioRad Protein Assay Kit (Bio-Rad Laboratories) using bovine serum albumin as standard.

The nature of another data set: Specific activity on MUL. It is filed as biochemical. Particulars: purified xylanase, 50° C. pH 5.0 10 min. Here is the method:
as §1

The nature of data set [4]: Hydrolysis with CBH enzyme mixtures, Avicel. It is filed as biochemical. Particulars: additional enzymes EGII, bG; 48 h, 45° C., pH 5.0. The method, then:
(§2) The performance of the purified recombinant cellobiohydrolases was evaluated in the hydrolysis studies with purified T. reesei enzymes. Hydrolysis was carried out with controlled mixtures of purified enzymes on several pre-treated substrates. […] In addition, pure T. reesei cellulases (purified as described by Suurnäkki et al., 2000) were used in the enzyme mixtures. The cellobiohydrolases used in the experiment were:
(§3) Each CBH/Cel7 to be tested (dosage 14.5 mg/g dry matter of substrate) was used either together with EGII/Cel5A of T. reesei (3.6 mg/g) or with a mixture containing T. reesei EGI/Cel7B (1.8 mg/g), EGII/Cel5A (1.8 mg/g), xylanase pI 9 (Tenkanen et al. 1992) (5000 nkat/g) and acetyl xylan esterase (AXE) (Sundberg and Poutanen, 1991) (250 nkat/g). All mixtures were supplemented with additional β-glucosidase from a commercial enzyme preparation Novozym 188 (176 nkat/g d.w.). Triplicate tubes containing the enzyme mixture and 10 mg (dry matter)/ml of the substrate suspended in 0.05 M sodium acetate were incubated in mixing by magnetic stirring at 45° C. for 48 h. Reference samples with inactivated enzymes and corresponding substrates were also prepared. The release of hydrolysis products was measured as reducing sugars with DNS method using glucose as standard (Table 30).
Crystalline cellulose (Avicel)

Data set [5] in a line: Hydrolysis with CBH enzyme mixtures, corn stover. Particulars: additional enzymes EGII, bG, 48 h, 45° C., pH 5.0. The data set is classed as biochemical. Here is the method: as §2, §3
Washed wet oxidized corn stover fibre (WOCS).

Data set [6] can be described thus: Hydrolysis with CBH enzyme mixtures, willow. The data set is classed as biochemical. Particulars: additional enzymes EGII, bG, 48 h, 45° C., pH 5.0. Here is the method: as §2, §3
Washed steam pre-treated willow fibre (pre-treatment for 14 min at 210° C.), dry matter 23.0% (WILLOW).

Data set [7] is described as follows: pH optimum of recombinant CBH/Cel7 proteins. Particulars: McIlvaine buffer, pH range 3.0-8.0, MUL, 50° C., 10 min. It is filed as biochemical. The method, then:
The recombinant CBH/Cel7 enzyme preparations were characterized in terms of pH optimum and thermal stability. The pH optimum of the recombinant CBH/Cel7 proteins from Thermoascus aurantiacus, Chaetomium thermophilum, and Acremonium thermophilum were determined in the universal McIlvaine buffer within a pH range of 3.0-8.0 using 4-methylumbelliferyl-β-D-lactoside (MUL) as a substrate (FIG. 3A). The pH optimum for Ct Cel7A and At Cel7A enzymes is at 5.5, above which the activity starts to gradually drop. The pH optimum of the recombinant crude Ta Cel7A is at 5.0 (FIG. 3A). Thermal stability of the recombinant Cel7 enzymes was determined by measuring the MUL activity in universal McIlvaine buffer at the optimum pH with reaction time of 1 h.

Data set [8] in a line: Hydrolysis with CBH enzyme mixtures, spruce. It is filed as biochemical. Particulars: additional enzymes EGII, bG; 48 h, 45° C., pH 5.0. Here is the method: as §2, §3
Washed steam pre-treated spruce fibre (impregnation with 3% w/w SO2 for 20 min, followed by steam pre-treatment at 215° C. for 5 min), dry matter 25.9% (SPRUCE).

Substrate in data set [9]: O=[N+]([O-])c1ccc(O[C@@H]2O[C@H](CO)[C@@H](O[C@@H]3O[C@H](CO)[C@H](O)[C@H](O)[C@H]3O)[C@H](O)[C@H]2O)c(Cl)c1
In words: Michaelis-Menten kinetic constants on CNPLac. The data set is classed as biochemical, Trichoderma reesei. Particulars: other: Tr Cel7A, 50 mM sodium phosphate pH 5.7, 22° C. The method, then:
(§4) The Michaelis-Menten and cellobiose inhibition constants were determined from the cellobiohydrolases produced heterologously in T. reesei (Examples 14 and 15). The enzymes were purified as described in Example 2. Protein concentrations of purified enzymes were measured by their absorption at 280 nm using a theoretical molar extinction co-efficient, which were calculated from the amino acid sequences (Gill and von Hippel, 1989).
(§5) Kinetic constants (Km and kcat values) and cellobiose inhibition constant (Ki) for Tr CBHI/Cel7A, Ta CBH/Cel7A, At CBH/Cel7A and Ct CBH/Cel7A, were measured using CNPLac (2-Chloro-4-nitrophenyl-β-D-lactoside) as substrate at ambient temperature (22° C.) in 50 mM sodium phosphate buffer, pH 5.7. For the determination of the inhibition constant (Ki), eight different substrate concentrations (31-4000 μM) in the presence of a range of five inhibitor concentrations (0-100 μM or 0-400 μM), which bracket the Ki value, were used. All experiments were performed in microtiter plates and the total reaction volume was 200 μl. The initial rates were in each case measured by continuous monitoring the release of the chloro-nitrophenolate anion (CNP, 2-Chloro-4-nitrophenolate) through measurements at 405 nm using Varioscan (Thermolabsystems) microtiter plate reader. The results were calculated from CNP standard curve (from 0 to 100 μM). Enzyme concentrations used were: Tr CBHI/Cel7A 2.46 μM, Ta CBH/Cel7A 1.58 μM, Ct CBH/Cel7A 0.79 μM and At CBH/Cel7A 3 μM. The Km and kcat constants were calculated from the fitting of the Michaelis-Menten equation using the programme of Origin. Lineweaver-Burk plots, replots (LWB slope versus [Glc2; cellobiose]) and Hanes plots were used to distinguish between competitive and mixed type inhibition and to determine the inhibition constants (Ki).

Substrate in data set [10]: O=[N+]([O-])c1ccc(O[C@@H]2O[C@H](CO)[C@@H](O[C@@H]3O[C@H](CO)[C@H](O)[C@H](O)[C@H]3O)[C@H](O)[C@H]2O)c(Cl)c1
In words: Michaelis-Menten kinetic constants on CNPLac. The data set is classed as biochemical, Chaetomium thermophilum. Particulars: other: Ct Cel7A, 50 mM sodium phosphate pH 5.7, 22° C. The method, then:
as §4, §5

In general, Km refers to the concentration of substrate that gives half-maximal velocity. As usually defined, the kcat is the maximal rate divided by the concentration of active sites. For orientation: kcat/Km means the second-order rate constant that governs catalysis at low substrate concentration.

B1: At XYN_60: xylanase of Acremonium thermophilum ALKO4245, gene At xyn10A, amino acid SEQ ID NO: 20 (protein)
chain: MRAKQLLAAGLLAPASVSAQLNSLAVAAGLKYFGTAVREANVNGDATYMSYVNNKSEFGQVTPENGQKWDSTEPSQGQFSYSQGDIVPGVAKKNGQVLRCHTLVWYSQLPSWVSSGSWTRATLQSVIETHISNVMGHYKGQCYAWDVVNEAINDDGTWRTSVFYNTFNTDYLAIAFNAAKKADAGAKLYYNDYNLEYNGAKTNTAVQLVQIVQQAGAPIDGVGFQGHLIVGSTPSRSSLATALKRFTALGLEVAYTELDIRHSSLPPSSAALATQGNDFASVVGSCLDVAGCVGITIWGFTDKYSWVPDTFPGSGAALLYDANYSKKPAWTSVSSVLAAKATNPPGGGNPPPVTTTTTTTTTSKPSQPTTTTTTTSPQGPQQTHWGQCGGIGWTGPQSCQSPWTCQKQNDWYSQCL
Turning to B1, in [1], the “Specific activity against MUG2” value turned out to be 54 nkat/mg. Moreover, the “Specific activity against MUG3” value in [2] is 78 nkat/mg. Besides, in [3] (10 min, pH 5.0), the “Relative activity at 60° C. as compared to 50° C.” value is recorded as “about 1.2 fold” and the “Relative activity at 70° C. as compared to 50° C.” value is about 1.65 fold. The “Specific activity on birch xylan” value in data set [3] (purified xylanase, 50° C., procedure of IUPAC 1987) is listed as 1800 nkat/mg. The “Specific activity against MUL” value in “Specific activity on MUL” was found to be 33 nkat/mg.

B2: Ta Cel7A: cellobiohydrolase of Thermoascus aurantiacus ALKO4242, gene Ta cel7A, amino acid SEQ ID NO: 2, no CBD (protein)
chain: MYQRALLFSFFLAAARAQQAGTVTAENHPSLTWQQCSSGGSCTTQNGKVVIDANWRWVHTTSGYTNCYTGNTWDTSICPDDVTCAQNCALDGADYSGTYGVTTSGNALRLNFVTQSSGKNIGSRLYLLQDDTTYQIFKLLGQEFTFDVDVSNLPCGLNGALYFVAMDADGGLSKYPGNKAGAKYGTGYCDSQCPRDLKFINGQANVEGWQPSANDPNAGVGNHGSCCAEMDVWEANSISTAVTPHPCDTPGQTMCQGDDCGGTYSSTRYAGTCDPDGCDFNPYRQGNHSFYGPGQIVDTSSKFTVVTQFITDDGTPSGTLTEIKRFYVQNGKVIPQSESTISGVTGNSITTEYCTAQKAAFGDNTGFFTHGGLQKISQALAQGMVLVMSLWDDHAANMLWLDSTYPTDADPDTPGVARGTCPTTSGVPADVESQYPNSYVIYSNIKVGPINSTFTAN
B2: the “Hydrolysis products as reducing sugars, Avicel” value in data set [4] amounted to 2.0 mg/mL. Besides, the “Hydrolysis products as reducing sugars, WOCS” value in data set [5] (EGI, XYL, AXE) stood at 4.3 mg/mL; in data set [5] it was 2.8 mg/mL. In addition, the “Hydrolysis products as reducing sugars, WILLOW” value in data set [6] (EGI, XYL, AXE) amounted to 2.8 mg/mL; in data set [6], 2.0 mg/mL. In [7], the pH optimum is reported as 5.0. Moreover, in data set [8], the “Hydrolysis products as reducing sugars, SPRUCE” value is 2.0 mg/mL.

B3: Trichoderma reesei cellobiohydrolase I Tr Cel7A (Tr CBHI/Cel7A) (Trichoderma reesei RUT C-30) (protein)
chain: QSACTLQSETHPPLTWQKCSSGGTCTQQTGSVVIDANWRWTHATNSSTNCYDGNTWSSTLCPDNETCAKNCCLDGAAYASTYGVTTSGNSLSIGFVTQSAQKNVGARLYLMASDTTYQEFTLLGNEFSFDVDVSQLPCGLNGALYFVSMDADGGVSKYPTNTAGAKYGTGYCDSQCPRDLKFINGQANVEGWEPSSNNANTGIGGHGSCCSEMDIWEANSISEALTPHPCTTVGQEICEGDGCGGTYSDNRYGGTCDPDGCDWNPYRLGNTSFYGPGSSFTLDTTKKLTVVTQFETSGAINRYYVQNGVTFQQPNAELGSYSGNELNDDYCTAEEAEFGGSSFSDKGGLTQFKKATSGGMVLVMSLWDDYYANMLWLDSTYPTNETSSTPGAVRGSCSTSSGVPAQVESQSPNAKVTFSNIKFGPIGSTGNPSGGNPPGGNPPGTTTTRRPATTTGSSPGPTQSHYGQCGGIGYSGPTVCASGTTCQVLNPYYSQCL
Turning to B3, in data set [9], the Km was 520 µM, the kcat came to 0.0433 s⁻¹ and the kcat/Km worked out at 83.3 M⁻¹ s⁻¹.

B4: Chaetomium thermophilum ALKO4265 cellobiohydrolase Ct Cel7A (Ct CBH/Cel7A), recombinant, SEQ ID NO: 8 (Thermochaetoides thermophila) (protein)
chain: QQACSLTAENHPSLTWKRCTSGGSCSTVNGAVTIDANWRWTHTVSGSTNCYTGNQWDTSLCTDGKSCAQTCCVDGADYSSTYGITTSGDSLNLKFVTKHQYGTNVGSRVYLMENDTKYQMFELLGNEFTFDVDVSNLGCGLNGALYFVSMDADGGMSKYSGNKAGAKYGTGYCDAQCPRDLKFINGEANVGNWTPSTNDANAGFGRYGSCCSEMDVWEANNMATAFTPHPCTTVGQSRCEADTCGGTYSSDRYAGVCDPDGCDFNAYRQGDKTFYGKGMTVDTNKKMTVVTQFHKNSAGVLSEIKRFYVQDGKIIANAESKIPGNPGNSITQEYCDAQKVAFSNTDDFNRKGGMAQMSKALAGPMVLVMSVWDDHYANMLWLDSTYPIDQAGAPGAERGACPTTSGVPAEIEAQVPNSNVIFSNIRFGPIGSTVPGLDGSNPGNPTTTVVPPASTSTSRPTSSTSSPVSTPTGQPGGCTTQKWGQCGGIGYTGCTNCVAGTTCTQLNPWYSQCL
For the molecule B4, in data set [10], the Km stood at 1960 µM, the kcat is 0.313 s⁻¹ and the kcat/Km turned out to be 158 M⁻¹ s⁻¹.
